Data taken from PMC2213112.
Like-named read-outs stand apart in the source and are kept apart here.

Key:
[1] = target: P-selectin expressed on Chinese hamster ovary cells (CHO-P) (UniProt P16109); test: flow cytometry on cells
[2] = target: P-selectin expressed on Chinese hamster ovary cells (CHO-P) (UniProt P16109); test: flow cytometry on cells; remark: listed apart in the source
[3] = target: P-selectin expressed on Chinese hamster ovary cells (CHO-P) (UniProt P16109); test: flow cytometry on cells; remark: listed apart in the source
[4] = target: Recombinant human P-selectin (recombinant ectodomain of P-selectin) (human) (UniProt P16109); test: SPR

Row | Substance | increase of binding over the sample without calcium or magnesium [1] | increase of binding over the sample without calcium or magnesium [2] | mean fluorescence intensity (MFI) of C3b-FITC [2] | increase of binding over the sample without calcium or magnesium [3] | Kd [4]
1 | FITC-conjugated purified C3b (from UniProt P01024 749-1663; P01024 749-1663) (natural protein) | 55% | 33% | 476 | 63% | 
2 | purified C3b (from UniProt P01024 749-1663; P01024 749-1663) (natural protein) |  |  |  |  | 1000 nM
